B1: BIM0554 (antibody, human IgG1, lambda)
heavy: not shown
light: SLVLTQPPSVSVAPGKTARITCGGNNIGSKSVHWYQQKPGQAPVLVVYDDSDRPSGIPERFSGSNSGNTATLTISRVEAGDEADYYCQVWDSSSDHVVFGGGTQLTVLGQPKANPTVTLFPPSSEELQANKATLVCLISDFYPGAVTVAWKADGSPVKAGVETTKPSKQSNNKYAASSYLSLTPEQWKSHRSYSCQVTHEGSTVEKTVAPTECS
chain: not shown
B2: BIM0548 (antibody, human IgG1, lambda)
heavy: EVQLVESGGGLVQPGGSLRLSCAASGFTFSNDEMNWIRQAPGKGLEWVSYISSRSSTIYYADAVKGRFTISRDNARNSLYLQMNSLRAEDTAVYYCARSVDGDGSFDYWGQGTLVTVSSASTKGPSVFPLAPSSKSTSGGTAALGCLVKDYFPEPVTVSWNSGALTSGVHTFPAVLQSSGLYSLSSVVTVPSSSLGTQTYICNVNHKPSNTKVDKRVEPKSCDKTHTCPPCPAPELLGGPSVFLFPPKPKDTLMISRTPEVTCVVVDVSHEDPEVKFNWYVDGVEVHNAKTKPREEQYNSTYRVVSVLTVLHQDWLNGKEYKCKVSNKALPAPIEKTISKAKGQPREPQVCTLPPSREEMTKNQVSLSCAVKGFYPSDIAVEWESNGQPENNYKTTPPVLDSDGSFFLVSKLTVDKSRWQQGNVFSCSVMHEALHNHYTQKSLSLSPGK
light: QLVLTQPPSVSGAPGQRVTISCTGSSSNIGAGYDVHWYQQLPGTAPKLLIYGNSNRPSGVPDRFSGSKSGTSASLAITGLQAEDEADYYCQSYDSSLSEEVFGGGTKLTVLGQPKANPTVTLFPPSSEELQANKATLVCLISDFYPGAVTVAWKADGSPVKAGVETTKPSKQSNNKYAASSYLSLTPEQWKSHRSYSCQVTHEGSTVEKTVAPTECS
chain: not shown
B3: BIM0556 (antibody, human IgG1, lambda)
heavy: not shown
light: B1 light
chain: not shown
notes: Half-arm (monovalent) anti-human CSF1R antibody, three chains as BIM0542; Heavy chain entry ends in X = K or absent; also called multispecific molecule 84; aCSF1R BI123 C1-R3B half-arm antibody
B4: BIM0555 (antibody, human IgG1, lambda)
heavy: not shown
light: B1 light
chain: not shown
notes: Half-arm (monovalent) anti-human CSF1R antibody, three chains as BIM0542; Heavy chain entry ends in X = K or absent; also called multispecific molecule 83; aCSF1R BI123 B6-R3B half-arm antibody
B5: BIM0547 (antibody, human IgG1, lambda)
heavy: B2 heavy with S52T, R54K, S99G, G104F
light: B2 light
chain: not shown
notes: Half-arm (monovalent) anti-human CSF1R antibody, three chains as BIM0542; Heavy chain entry ends in X = K or absent; also called multispecific molecule 75; aCSF1R BI117 G12-R2B half-arm antibody
B6: BIM0553 (antibody, human IgG1, lambda)
heavy: B2 heavy with S99G, G104F, Y108F
light: B2 light
chain: not shown
notes: Half-arm (monovalent) anti-human CSF1R antibody, three chains as BIM0542; Heavy chain entry ends in X = K or absent; also called multispecific molecule 81; aCSF1R BI117 C5-R3B half-arm antibody
B7: BIM0550 (antibody, human IgG1, lambda)
heavy: B2 heavy with R54S, K65T, S99G, G104F
light: B2 light
chain: not shown
notes: Half-arm (monovalent) anti-human CSF1R antibody, three chains as BIM0542; Heavy chain entry ends in X = K or absent; also called multispecific molecule 78; aCSF1R BI117 A11-R3B half-arm antibody
B8: BIM0549 (antibody, human IgG1, lambda)
heavy: B2 heavy with V100S, D103S, G104T
light: B2 light
chain: not shown
notes: Half-arm (monovalent) anti-human CSF1R antibody, three chains as BIM0542; Heavy chain entry ends in X = K or absent; also called multispecific molecule 77; aCSF1R BI117 A6-R3B half-arm antibody
B9: BIM0566 (antibody, human IgG1, lambda)
heavy: B2 heavy with V100G, D101R, G102L
light: B2 light
chain: not shown
notes: Half-arm (monovalent) anti-human CSF1R antibody, three chains as BIM0542; Heavy chain entry ends in X = K or absent; also called multispecific molecule 85; aCSF1R BI117 C6-R3B half-arm antibody
B10: BIM0551 (antibody, human IgG1, lambda)
heavy: B2 heavy with S99N, V100S, G102S, Y108I
light: B2 light
chain: not shown
notes: Half-arm (monovalent) anti-human CSF1R antibody, three chains as BIM0542; Heavy chain entry ends in X = K or absent; also called multispecific molecule 79; aCSF1R BI117 B2-R3B half-arm antibody
B11: BIM0567 (antibody, human IgG1, lambda)
heavy: B2 heavy with S99G, D101E, G102S, G104F
light: B2 light
chain: not shown
notes: Half-arm (monovalent) anti-human CSF1R antibody, three chains as BIM0542; Heavy chain entry ends in X = K or absent; also called multispecific molecule 86; aCSF1R BI117 D11-R3B half-arm antibody

The results in this text go back to patent US20220242957A1 (MARENGO THERAPEUTICS, published 2022).

Substitutions are numbered along the chain they refer to. Names and notes keep the numbering of the source.

T2 sequence (P07333 20-517): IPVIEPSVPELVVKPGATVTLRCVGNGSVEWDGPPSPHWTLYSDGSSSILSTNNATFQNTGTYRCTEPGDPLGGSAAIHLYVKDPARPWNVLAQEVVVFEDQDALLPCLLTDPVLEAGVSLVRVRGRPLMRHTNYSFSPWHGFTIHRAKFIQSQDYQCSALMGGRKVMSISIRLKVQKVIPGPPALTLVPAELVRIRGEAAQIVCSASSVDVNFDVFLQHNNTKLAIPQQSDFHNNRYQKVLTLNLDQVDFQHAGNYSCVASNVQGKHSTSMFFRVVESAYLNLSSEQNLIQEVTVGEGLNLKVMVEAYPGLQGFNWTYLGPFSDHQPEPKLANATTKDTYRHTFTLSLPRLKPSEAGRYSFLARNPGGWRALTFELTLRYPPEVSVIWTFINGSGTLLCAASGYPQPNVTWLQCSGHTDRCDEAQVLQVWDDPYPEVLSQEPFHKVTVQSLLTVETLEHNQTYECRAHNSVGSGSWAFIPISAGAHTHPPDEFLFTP

The target of the first assay is T1, human CSF1R (human, UniProt P07333 20-972). The assay can be described thus: cell-based or functional assay.
T1 sequence (P07333 20-972): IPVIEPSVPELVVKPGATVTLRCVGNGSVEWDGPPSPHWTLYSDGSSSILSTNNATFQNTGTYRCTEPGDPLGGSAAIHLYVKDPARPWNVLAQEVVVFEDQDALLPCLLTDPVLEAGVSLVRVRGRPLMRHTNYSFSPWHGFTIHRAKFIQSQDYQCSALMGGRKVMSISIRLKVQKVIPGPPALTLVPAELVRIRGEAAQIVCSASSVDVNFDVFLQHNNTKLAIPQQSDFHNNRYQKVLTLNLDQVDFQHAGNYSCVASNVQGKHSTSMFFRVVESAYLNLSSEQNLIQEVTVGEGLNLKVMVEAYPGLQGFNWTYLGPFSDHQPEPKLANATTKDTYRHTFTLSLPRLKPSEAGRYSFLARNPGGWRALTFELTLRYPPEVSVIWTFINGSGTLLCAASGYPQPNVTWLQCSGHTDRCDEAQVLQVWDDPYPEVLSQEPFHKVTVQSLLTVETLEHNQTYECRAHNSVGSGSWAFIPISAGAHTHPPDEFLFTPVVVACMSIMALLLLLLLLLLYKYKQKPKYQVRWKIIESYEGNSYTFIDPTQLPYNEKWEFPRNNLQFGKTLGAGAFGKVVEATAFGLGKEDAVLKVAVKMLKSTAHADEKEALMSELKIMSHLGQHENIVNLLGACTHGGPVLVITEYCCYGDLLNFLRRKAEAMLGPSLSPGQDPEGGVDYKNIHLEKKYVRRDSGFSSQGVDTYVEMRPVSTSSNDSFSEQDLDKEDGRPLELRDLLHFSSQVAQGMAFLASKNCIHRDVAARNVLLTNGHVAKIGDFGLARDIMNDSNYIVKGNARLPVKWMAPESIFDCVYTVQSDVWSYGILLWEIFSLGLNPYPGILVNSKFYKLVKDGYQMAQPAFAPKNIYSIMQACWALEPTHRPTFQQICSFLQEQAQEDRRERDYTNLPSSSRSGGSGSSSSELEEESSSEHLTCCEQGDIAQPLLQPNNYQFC
With B1, the “IC50 of reduction of MCP-1 (CCL2) secretion by human monocytes cultured with hCSF-1 (electrochemiluminescence)” value is no more than 30 nM. As for B2, the “IC50 of reduction of MCP-1 (CCL2) secretion by human monocytes cultured with hCSF-1 (electrochemiluminescence)” value is no more than 30 nM.

A further assay has as its target T2, human CSF1R-Fc ECD (human, UniProt P07333 20-517).
T2 construct: extracellular domain; not shown: Fc part of the coated reagent, not described
The assay can be described thus: ELISA, plate coated with 2 µg/mL human CSF1R, monovalent antibody titrated, anti-human Fc HRP. The method, then: Microplates were separately coated with 2 μg/mL of human or cyno CSF1R in 100 μL and blocked with 2% BSA. Serial dilutions of unlabeled monovalent human antibodies (11 points, 3-fold dilutions, 400 nM to […]) were transferred to the coated and blocked plates at 75 μL/well and incubated for 1 hr at room temperature. Plates were washed three times and incubated for 30 mins with anti-human Fc horseradish peroxidase conjugate followed by addition of TMB, a substrate of HRP. The plates were developed for 5 mins, stopped with 1M HCL and read at a wavelength of 450 nm.
In general terms: An ELISA detects its analyte on a solid surface through an enzyme-linked reagent.
For the molecule B3, the binding result is recorded as “binds”. The same measure, in the same setting: the result for B4 reads “binds”.

B5: the binding result is given as “binds”. For the molecule B6, the binding result is “binds”. As for B7, the binding result is given as “binds”.

B8: the binding result is “binds”. For B9, the binding result is recorded as “binds”. For the molecule B10, the binding result was “binds”. For B11, the binding result is “binds”.

Another assay has as its target T1, human CSF1R. The assay can be described thus: flow cytometry on HEK-293T cells stably transduced with human CSF1R; anti-human Fc APC; percent APC positive. How it is done: HEK-293T cells were lentivirally transduced with human CSF1R and stable cell lines were generated. Nearly all transduced cells expressed high levels of CSF1R. Cells were washed with PBS containing 0.5% BSA and 0.1% sodium azide (staining buffer) and added to 96-well V-bottom plates with 100,000 cells/well. Human anti-CSF1R monovalent antibodies were added to the cells in 2.5 fold serial dilutions and incubated for 2 hour at room temperature. The plates were washed twice with staining buffer. The secondary antibody against human Fc conjugated to APC was added at 1:200 dilution (1.5 mg/ml stock) and incubated with the cells for 1 hour at 4° C. followed by washing with staining buffer. Cells were subsequently stained with a live/dead dye to exclude any dying cells and were fixed for 10 minutes with 4% paraformaldehyde at room temperature. The plates were read on CytoFLEX LS (Beckman Coulter). Data was calculated as the percent-APC positive population.
On the technique in general: A flow cytometer gives signals particle by particle.
Take B3: the binding result is “binds”. As to B4, the binding result is listed as “binds”. Regarding B5, the binding result is given as “binds”. B6: the binding result is recorded as “binds”. Regarding B7, the binding result is “binds”. B8: the binding result was “binds”. With B9, the binding result is “binds”. B10: the binding result was “binds”.

Regarding B11, the binding result is listed as “binds”.
